From PMC3900414 come the findings set out here.

The series deals with T1, hPus1 (79-408) (Homo sapiens, UniProt Q9Y606 79-408).
T1 sequence: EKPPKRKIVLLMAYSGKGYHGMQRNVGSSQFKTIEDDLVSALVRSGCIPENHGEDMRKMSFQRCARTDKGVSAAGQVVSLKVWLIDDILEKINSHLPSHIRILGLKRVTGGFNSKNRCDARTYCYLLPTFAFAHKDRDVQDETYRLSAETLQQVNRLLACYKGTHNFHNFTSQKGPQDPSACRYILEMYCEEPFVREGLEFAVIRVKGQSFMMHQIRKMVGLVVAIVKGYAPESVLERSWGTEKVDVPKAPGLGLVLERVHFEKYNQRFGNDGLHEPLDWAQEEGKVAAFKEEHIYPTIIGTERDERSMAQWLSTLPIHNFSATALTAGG
The experiment in a line: size exclusion chromatography. (Size exclusion chromatography separates by hydrodynamic size, large species first.)

Regarding GAUGGACUUGAAAUCCAUUGGCGCAGGUUCGAAUCCUGC (structured_RNA) [minimal tRNASer (nt 26-65), unlabeled], the binding result is “binds”.
